Data reported in FireProtDB (doi:10.1021/bi00093a001).

Settings: Hordeum vulgare, MES 450 mM, reversible: yes, whole UniProt chain shown; for Tm / unfolding enthalpy (calorimetric) / unfolding enthalpy (van 't Hoff): Thermal, DSC
[1] = pH 6.3, 25 °C, GdnHCl, Fluorescence

B1: Subtilisin-chymotrypsin inhibitor-2A wild type, P01053 (protein)
chain: MSSVEKKPEGVNTGAGDRHNLKTEWPELVGKSVEEAKKVILQDKPEAQIIVLPVGTIVTMEYRIDRVRLFVDKLDNIAQVPRVG
pH 3
  Tm: 64 °C
  unfolding enthalpy (calorimetric): 255 kJ/mol
  unfolding enthalpy (van 't Hoff): 256 kJ/mol
pH 3.5
  Tm: 73.8 °C
  unfolding enthalpy (calorimetric): 280 kJ/mol
  unfolding enthalpy (van 't Hoff): 280 kJ/mol
[1]
  denaturant m value: 1.89 kcal/mol/M
  denaturant midpoint (higher = more stable): 3.99 M
  unfolding free energy: 31.5 kJ/mol
